According to patent US20100285015A1:

Assays:
[1] = target: human red blood cells (human); test: 125I-labeled fusion on human RBCs, 10% hematocrit, 1 h at 37° C, gamma counting
[2] = target: glycophorin A associated protein (GPA) on mouse red blood cells (mouse); test: preloaded mouse RBCs injected in mice; RBC vs plasma radioactivity (in vivo)
[3] = target: glycophorin A associated protein (GPA) on mouse red blood cells (mouse); test: 125I-labeled fusion on mouse RBCs, 10% hematocrit, 1 h at 37° C, gamma counting
[4] = target: glycophorin A associated protein (GPA) on mouse red blood cells (mouse); test: 125I-labeled fusion at 40 µg/ml on mouse RBCs at ~50% hematocrit in PBS/BSA or heparinated plasma, 37° C, time course
[5] = target: glycophorin A associated protein (GPA) on mouse red blood cells (mouse); test: 125I-labeled fusion injected i.v. in mice; RBC vs plasma radioactivity in blood (in vivo)
[6] = target: glycophorin A associated protein (GPA) on mouse red blood cells (mouse); test: 125I-labeled fusion on mouse RBCs, 1% hematocrit, saturation binding (FIG. 4C)

B1: Ter119scFv-mRNK fusion protein (protein)
chain: RSPWPGVPTSQVKLQESGGGLVQPGGSLKLSCVASGFTFRDHWMNWVRQAPGKTMEWIGDIRPDGSDTNYAPSVRNRFTISRDNARSILYLQMSNMRSDYTATYYCVRDSPTRAGLMDAWGQGASVTVLTGGGGSGGGGSGGGGSDIQMIQSPSVLSASVGDRVTLNCKASQNINKYLNWYQQKLGEAPKVLIYNTNNLQTGIPSRFSGSGSGTDFTLTISSLQPEDFATYFCFQHYTWPTFGGGTKLELKRASSSSGSSSSGAAAPKGKSEDCYVGKGVTYRGTHSLTTSQASCLPWNSIVLMGKSYTAWRTNSQALGLGRHNYCRNPDGDARPWCHVMKDRKLTWEYCDMSPCSTCGLRQYKRPQFRIKGGLYTDITSHPWQAPIFVAAAASPGERFLCGGVLISSCWVLSAAHCFLERFPPNHLKVVLGRTYRVVPGEEEQTFEIEKYIVHEEFDDDTYDNDIALLQLRSQSKQCAQESSSVGTACLPDPNLQLPDWTECELSGYGKHEASSPFFSDRLKEAHVRLYPSSRCTSQHLFNKTVTNNMLCAGDTRSGGNQDLHDACQGDSGGPLVCMINKQMTLTGIISWGLGCGQKDVPGVYTKVTNYLDWIHDNMKQ
modifications: 125I radiolabel in the binding assays
With B1 the molecules/hRBC (molecules/hRBC) [1] was 120, the percent of fusion in the bloodstream associated with RBCs (one hour) [2] was 90 % ID and the percent of fusion in the bloodstream associated with RBCs (three hours) [2] was 75 % ID. It also gave a molecules/mRBC (molecules/mRBC) [3] of 20000, a 50% saturation time [4] of 30 min and a percent associated with RBC [5] of 90%. The Bmax (molecules/RBC) [6] was 80000 and the Kd [6] was 77.9 nM.
